According to article PMC2760644:

Molecular target: F-actin (chicken) (UniProt P68139)
Test: co-sedimentation

Substance: supervillin headpiece L38K point mutant (domain or fragment)
- Kd: 88 µM
